Data on three molecules can be found in patent US20030103973A1 (published 2003).

Read-outs that look alike come from different tables or passages of the source. Bounds are passed on as bounds.

Broadly, the IC50 is the concentration that gives 50% inhibition. Low values mean greater potency, high ones weaker potency. Broadly, the Kd is the free concentration of one partner at which half of the binding sites on the other are occupied at equilibrium, for simple one-to-one binding. Low values mean higher affinity, high ones lower affinity. Usually koff stands for a measure of how fast the partners let go of each other. A low value points to a long-lived complex. For orientation: kon means the rate constant with which the complex forms. High values mean fast association, low ones slow association. The EC50 is the concentration that produces a half-maximal response. A higher EC50 goes with weaker potency.

Experiment [1] concerns the target T1, soluble fusion protein KDR-AP (KDR extracellular domain fused to human placental alkaline phosphatase) (human, UniProt P35968 20-764).
T1 construct: extracellular domain; also called immobilized KDR; KDR receptor; not shown: human placental alkaline phosphatase (vector AP-Tag)
In words: competitive VEGF blocking ELISA: KDR-AP binding to immobilized VEGF165. In general terms: An ELISA detects its analyte on a solid surface through an enzyme-linked reagent.

The next experiment concerns the target KDR expressed on HUVEC (human, UniProt P35968 20-1356). The experiment is described as follows: cell-based or functional assay.
In experiment [2] the target is T1, soluble fusion protein KDR-AP (KDR …). In words: competitive ELISA: KDR-AP binding to immobilized VEGF165.
Experiment [3] shares this target. The experiment is described as follows: BIAcore, KDR-AP immobilized. The protocol: The binding kinetics of soluble scFv to KDR were measured using BIAcore biosensor (Pharmacia Biosensor). KDR-AP fusion protein was immobilized onto a sensor chip and soluble scFv were injected at concentrations ranging from 62.5 nM to 1000 nM. Sensorgrams were obtained at each concentration and were evaluated using a program, BIA Evaluation 2.0, to determine the rate constant kon and koff. Kd was calculated from the ratio of rate constants koff/kon.
A general note: In SPR one partner is held on a chip, and binding of the other changes the refractive index at the surface.

For experiment [4] the target is unchanged. The experiment is described as follows: direct binding ELISA on KDR-coated plates (printed ED50, 50% of maximum binding). The protocol: In the direct binding assay, various amounts of soluble scFv were added to KDR-coated 96-well Maxi-sorp microtiter plates and incubated at room temerature for 1 h, after which the plates were washed 3 times with PBST. The plates were then incubated at room temerature for 1 h with 100 μl of mouse anti-E tag antibody followed by incubation with 100 µl of rabbit anti-mouse antibody-HRP conjugate. The plates were washed and developed following the procedure described above for the phage ELISA.

For experiment [5] the target is unchanged. In words: BIAcore, KDR-AP immobilized. The protocol: The binding kinetics of antibodies to KDR were measured using BIAcore biosensor (Pharmacia Biosensor). […] Sensorgrams were obtained at each concentration and were evaluated using a program, BIA Evaluation 2.0, to determine the rate constants kon and koff. Kd was calculated as the ratio of rate constants koff/kon.
*All rates are determined by surface plasmon resonance using BIAcore system, and are mean of at least three separate determinations.
This is another data set of the same source.

For experiment [6], the target named is chimeric receptor mouse FLK-1/human fms expressed on transfected 3T3 cells (C441) (mouse; human) (UniProt P35918). In words: cell-based or functional assay.
chimeric receptor mouse FLK-1/human fms expressed on transfected 3T3 cells (C441) (mouse; human), sequence (P35918 other isoform, or with tags, fused parts or gaps mutant limits assumed): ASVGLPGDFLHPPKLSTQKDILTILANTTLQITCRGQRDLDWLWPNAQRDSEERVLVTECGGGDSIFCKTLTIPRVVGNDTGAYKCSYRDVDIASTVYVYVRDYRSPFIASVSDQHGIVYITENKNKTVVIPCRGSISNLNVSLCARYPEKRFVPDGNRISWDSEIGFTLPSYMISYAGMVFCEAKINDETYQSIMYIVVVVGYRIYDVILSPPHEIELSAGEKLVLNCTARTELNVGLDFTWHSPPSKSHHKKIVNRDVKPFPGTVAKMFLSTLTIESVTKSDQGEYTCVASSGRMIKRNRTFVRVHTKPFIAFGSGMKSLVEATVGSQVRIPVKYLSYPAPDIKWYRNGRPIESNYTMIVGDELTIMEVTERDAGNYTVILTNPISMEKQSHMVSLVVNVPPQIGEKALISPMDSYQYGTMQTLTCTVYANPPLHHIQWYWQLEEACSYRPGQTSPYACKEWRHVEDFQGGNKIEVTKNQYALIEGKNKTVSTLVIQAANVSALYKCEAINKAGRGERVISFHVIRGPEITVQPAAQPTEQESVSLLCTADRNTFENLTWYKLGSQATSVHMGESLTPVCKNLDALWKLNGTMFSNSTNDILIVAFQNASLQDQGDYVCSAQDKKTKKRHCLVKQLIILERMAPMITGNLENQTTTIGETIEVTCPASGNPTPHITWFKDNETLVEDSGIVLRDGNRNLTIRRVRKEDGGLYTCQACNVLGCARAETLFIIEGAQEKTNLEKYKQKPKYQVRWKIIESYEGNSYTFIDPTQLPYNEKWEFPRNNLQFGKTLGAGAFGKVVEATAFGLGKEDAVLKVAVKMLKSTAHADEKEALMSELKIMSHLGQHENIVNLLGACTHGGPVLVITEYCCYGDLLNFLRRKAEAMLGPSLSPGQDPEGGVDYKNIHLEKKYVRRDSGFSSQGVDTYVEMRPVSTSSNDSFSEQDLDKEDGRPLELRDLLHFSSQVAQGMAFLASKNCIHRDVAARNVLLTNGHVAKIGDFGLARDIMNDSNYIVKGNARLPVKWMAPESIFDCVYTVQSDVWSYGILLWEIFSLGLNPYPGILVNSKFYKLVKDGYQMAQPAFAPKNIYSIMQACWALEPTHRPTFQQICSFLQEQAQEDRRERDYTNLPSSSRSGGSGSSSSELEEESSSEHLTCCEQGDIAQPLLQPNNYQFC
The target is the same in experiment [7]. The experiment is described as follows: saturation binding to intact C441 cells, colorimetric detection.

T1 sequence (P35968 20-764): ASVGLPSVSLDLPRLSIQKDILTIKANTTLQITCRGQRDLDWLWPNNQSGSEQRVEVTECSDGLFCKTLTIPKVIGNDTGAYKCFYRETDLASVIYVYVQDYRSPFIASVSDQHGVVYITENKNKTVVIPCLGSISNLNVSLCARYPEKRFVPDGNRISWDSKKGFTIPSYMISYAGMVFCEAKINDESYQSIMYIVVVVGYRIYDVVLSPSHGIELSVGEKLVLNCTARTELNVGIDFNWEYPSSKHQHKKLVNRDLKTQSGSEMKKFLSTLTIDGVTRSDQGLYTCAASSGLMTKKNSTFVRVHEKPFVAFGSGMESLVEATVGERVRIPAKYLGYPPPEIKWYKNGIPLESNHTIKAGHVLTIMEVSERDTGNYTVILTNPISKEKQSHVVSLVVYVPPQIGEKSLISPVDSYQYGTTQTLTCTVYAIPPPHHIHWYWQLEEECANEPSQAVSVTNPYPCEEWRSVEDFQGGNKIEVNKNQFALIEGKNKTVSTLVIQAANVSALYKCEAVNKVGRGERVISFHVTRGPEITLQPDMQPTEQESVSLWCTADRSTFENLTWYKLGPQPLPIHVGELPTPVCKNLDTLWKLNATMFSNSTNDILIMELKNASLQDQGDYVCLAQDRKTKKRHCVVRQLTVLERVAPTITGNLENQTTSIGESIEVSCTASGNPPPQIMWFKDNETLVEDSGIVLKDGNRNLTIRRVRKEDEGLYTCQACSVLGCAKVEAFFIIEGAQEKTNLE
KDR expressed on HUVEC, sequence (P35968 20-1356): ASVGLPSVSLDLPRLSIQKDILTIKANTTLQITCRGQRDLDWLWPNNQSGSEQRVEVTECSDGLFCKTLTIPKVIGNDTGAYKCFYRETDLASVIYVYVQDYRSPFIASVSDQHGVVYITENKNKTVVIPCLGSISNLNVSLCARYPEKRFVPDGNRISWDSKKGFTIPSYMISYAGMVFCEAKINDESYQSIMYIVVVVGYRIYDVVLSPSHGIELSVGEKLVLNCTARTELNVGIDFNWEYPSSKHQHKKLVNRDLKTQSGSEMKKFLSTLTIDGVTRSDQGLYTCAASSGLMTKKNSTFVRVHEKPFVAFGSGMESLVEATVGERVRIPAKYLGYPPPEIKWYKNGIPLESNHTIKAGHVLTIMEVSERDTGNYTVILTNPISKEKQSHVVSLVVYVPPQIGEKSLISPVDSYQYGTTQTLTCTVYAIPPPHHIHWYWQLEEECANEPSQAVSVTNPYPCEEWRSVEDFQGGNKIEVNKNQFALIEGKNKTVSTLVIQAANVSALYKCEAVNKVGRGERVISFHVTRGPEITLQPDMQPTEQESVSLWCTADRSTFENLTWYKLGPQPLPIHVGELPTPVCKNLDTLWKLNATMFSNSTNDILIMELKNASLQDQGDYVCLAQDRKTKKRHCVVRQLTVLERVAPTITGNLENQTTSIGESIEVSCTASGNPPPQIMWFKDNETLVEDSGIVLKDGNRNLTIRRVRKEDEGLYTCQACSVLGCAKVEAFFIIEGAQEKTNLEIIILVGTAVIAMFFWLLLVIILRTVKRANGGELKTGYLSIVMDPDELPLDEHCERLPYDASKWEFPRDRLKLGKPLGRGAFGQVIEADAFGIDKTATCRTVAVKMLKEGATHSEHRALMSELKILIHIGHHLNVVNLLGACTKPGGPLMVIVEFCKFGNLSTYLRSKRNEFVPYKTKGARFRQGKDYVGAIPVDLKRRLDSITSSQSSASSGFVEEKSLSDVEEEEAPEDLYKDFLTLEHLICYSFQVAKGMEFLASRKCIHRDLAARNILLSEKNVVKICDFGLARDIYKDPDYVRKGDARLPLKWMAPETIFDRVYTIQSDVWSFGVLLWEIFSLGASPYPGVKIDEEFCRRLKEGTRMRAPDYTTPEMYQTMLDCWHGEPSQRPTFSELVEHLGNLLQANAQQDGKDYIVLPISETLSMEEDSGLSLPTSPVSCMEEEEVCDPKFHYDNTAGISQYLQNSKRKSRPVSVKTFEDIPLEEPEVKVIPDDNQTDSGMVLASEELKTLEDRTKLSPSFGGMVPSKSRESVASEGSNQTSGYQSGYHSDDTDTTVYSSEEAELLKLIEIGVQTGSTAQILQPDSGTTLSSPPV

B1: anti-KDR single chain antibody p1C11 (scFv)
scFv: QVKLQQSGAELVGSGASVKLSCTTSGFNIKDFYMHWVKQRPEQGLEWIGWIDPENGDSDYAPKFQGKATMTADSSSNTAYLQLSSLTSEDTAVYYCNAYYGDYEGYWGQGTTVTVSSGGGGSGGGGSGGGGSDIELTQSPAIMSASPGEKVTITCSASSSVSYMHWFQQKPGTSPKLWIYSTSNLASGVPARFSGSGSGTSYSLTISRMEAEDAATYYCQQRSSYPFTFGSGTKLEIK
notes: also called scFv p1C11; p1C11 scFv
In the case of B1, the IC50 in experiment [1] was found to be 3 nM. The “EC50, the antibody concentration that inhibited 50% of VEGF-stimulated mitogenesis of HUVEC” value with KDR expressed on HUVEC was around 5 nM. The IC50 in experiment [2] came to 2 nM. In addition, in experiment [3], the Kd is 2.1 nM, the koff came out at 0.00023 s⁻¹ and the kon is 110000 M⁻¹ s⁻¹. The EC50 in experiment [4] amounted to 0.3 nM. In experiment [5], this molecule came in with a Kd of 2.1 nM, a koff of 0.000227 s⁻¹ and a kon of 111000 M⁻¹ s⁻¹.

B2: chimeric p1C11 IgG (c-p1C11) (antibody, V domains shown)
VH: QVKLQQSGAELVGSGASVKLSCTTSGFNIKDFYMHWVKQRPEQGLEWIGWIDPENGDSDYAPKFQGKATMTADSSSNTAYLQLSSLTSEDTAVYYCNAYYGDYEGYWGQGTTVTVSS
VL: DIELTQSPAIMSASPGEKVTITCSASSSVSYMHWFQQKPGTSPKLWIYSTSNLASGVPARFSGSGSGTSYSLTISRMEAEDAATYYCQQRSSYPFTFGSGTKLEIK
notes: bivalent IgG made in COS cells; also called chimeric IgG
Turning to B2, the IC50 in experiment [2] is 0.8 nM. In experiment [5], this molecule returned a Kd of 0.82 nM, a koff of 5.2e-05 s⁻¹ and a kon of 63000 M⁻¹ s⁻¹.

B3: rat anti-mouse FLK-1 monoclonal antibody DC-101 (antibody, from another filing, rat IgG1, V domains shown)
VH: EVQLVETGGGLVQPGNSLKLSCATSGFIFSTTWMNWIRQTPGKRLEWLAQIEDKSNNYFISYSESVKGRFTISRDDSKSSVYLQMNNLKEEDTAIYYCSWKYRSNYYFDYWGQGVMVTVSS
VL: DIVLTQSPALAVSLEQRATISCKTSQNVDYYGISYLHWYQQKPGQQPKLLIYEGSNLASGIPARFSGSGSGTDFTLTIDPVEADDIVTYYCQQSKDYPYTFGAGTKLELKR
For B3, in experiment [6], the antibody concentration giving a marked decrease in the phosphorylation of FLK-1, competitive conditions was above 0.5 µg/mL; the antibody concentration giving a marked decrease in the phosphorylation of FLK-1 by VEGF165 (40 ng/ml) was above 0.5 µg/mL; the antibody concentration sufficient to inhibit receptor activation by ligand was below 1 µg/mL; the level of FLK-1/fms phosphorylation relative to the fully stimulated receptor control, antibody added with VEGF (densitometry) was 40%. Also, in experiment [6], the level of FLK-1/fms phosphorylation relative to the fully stimulated receptor control, antibody prebound (densitometry) is 6% and the prebound antibody concentration sufficient to completely inhibit receptor activation by ligand is below 1 µg/mL. Further, the relative apparent affinity in experiment [7] was 500 ng/mL.
